The record followed here is US12239647B2, “ALS treatment using induced regulatory T (iTREG) cells” (RAPA THERAPEUTICS, LLC, priority 2018, dated 2025).

Assay [1] relates to human CD4+ and CD8+ T cells. The assay can be described thus: Cytokine secretion (Luminex) after 10-day re-differentiation in polarization conditions. The class given is cell-based. Conditions: lack of IL-4 inclusion in the T cell re-differentiation process. From the text: FIGS. 16A-16C illustrate that the culture of de-differentiated T cells in hybrid Th2/TReg polarization condition results in the generation of T cells with a primitive Th2 cell cytokine phenotype: as indicated by high levels of IL-2 and IL-4 secretion and a low level of IL-5 secretion. Human CD4+ and CD8^+ T cells were subjected to a 3-day de-differentiation procedure and subsequent culture in media containing variable polarization culture conditions and variable presence of pemetrexed, as described in FIG. 13. Out of the total of n=24 culture conditions, only the cultures with favorable cell yields were further evaluated; all cultures shown that contained pemetrexed (“+”) were at the concentration of 10 nM. The TREG conditions above all contained IL-2, TGF-β, and IL-4 (“TReg”) unless indicated (“TReg, No IL4”). […] All results shown are expressed as cytokine level in pg per ml per 1×10^6 cells/ml/24 hr.
FIGS. 17A-17C illustrate that the culture of de-differentiated T cells in hybrid Th2/TReg polarization condition results in the generation of T cells with a primitive Th2 cell cytokine phenotype: as indicated by low levels of IL-10, IL-13, and IL-17 secretion. […] Out of the total of n=24 culture conditions, only the cultures with favorable cell yields were further evaluated; all cultures shown that contained pemetrexed (“+”) were at the concentration of 10 nM. […] All results shown are expressed as cytokine level in pg per ml per 1×10^6 cells/ml/24 hr.
FIGS. 18A-18C illustrates that the culture of de-differentiated T cells in hybrid Th2/TREG polarization condition results in the generation of T cells with a primitive Th2 cell cytokine phenotype: as indicated by low levels of IFN-gamma, TNF-alpha, and GM-CSF secretion. […] Out of the total of n=24 culture conditions, only the cultures with favorable cell yields were further evaluated; all cultures shown that contained pemetrexed (“+”) were at the concentration of 10 nM. […] All results shown are expressed as cytokine level in pg per ml per 1×10^6 cells/ml/24 hr.

A further assay concerns CD4+ and CD8+ T cells. The assay can be described thus: Flow cytometry of GATA3 and FOXP3 in Th2/TREG cell product after 6-day culture. The format is cell-based, human. As to conditions: control manufacturing culture that did not include IL-4. From the text: After the 6-day culture, the T cells were harvested, stained for surface markers (CD4 and CD8) and intracellular molecule expression (GATA3 and FOXP3) and evaluated by flow cytometry. Results in FIGS. 26A-B show the FOXP3 and GATA3 expression for CD4+ and CD8+ T cells at the start of culture and after culture (Th2/TREG) as measured by flow cytometry. The percentages provided indicate the amount of cells considered positive for CD4+ or CD8+ and the intracellular marker (shown in boxes).
(In flow cytometry, cells or beads pass a laser one at a time.)

B1: IL-4: Th2 polarizing cytokine added to re-differentiation culture (protein, UniProt P05112 25-153, looked up)
Interleukin-4: HKCDITLQEIIKTLNSLTEQKTLCTELTVTDIFAASKNTTEKETFCRAATVLRQFYSHHEKDTRCLGATAQQFHRHKQLIRFLKRLDRNLWGLAGLNSCPVKEANQSTLENFLERLKTIMREKYSKCSS
Consider B1, for which, in assay [1], the GM-CSF secretion entry is “higher levels”, the IFN-γ secretion entry is “higher levels” and the TNF-α secretion entry is recorded as “higher levels”. Further, the “frequency of GATA3-positive T cells” value in the assay with CD4+ and CD8+ T cells is “greatly reduced frequency of GATA3-positive T cells”.
